# Source: patent publication US20260250371A1 (ULTRAGENYX PHARMACEUTICAL, published 2026)
# “And” between values parts separate entries of the source, which are not always exact repeats. Equal entries are not always repeated. Where two headings read alike, the source gives them in different places.
# T1: recombinant human FGF23 (R179Q) (human, UniProt Q9GZV9 25-251)
# T1 construct: also called rhFGF23(R179Q); hFGF23(R179Q)
# T1 sequence (looked up): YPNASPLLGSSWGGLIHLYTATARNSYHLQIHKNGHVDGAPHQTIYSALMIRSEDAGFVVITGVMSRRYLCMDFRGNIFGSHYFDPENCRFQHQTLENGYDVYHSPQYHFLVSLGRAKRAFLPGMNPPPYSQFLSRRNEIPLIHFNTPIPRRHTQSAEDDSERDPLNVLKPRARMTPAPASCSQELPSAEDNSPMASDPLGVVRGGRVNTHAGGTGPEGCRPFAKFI
# T2: cynomolgus monkey (Macaca fascicularis) FGF23 (R179Q) (cynomolgus monkey (Macaca fascicularis), UniProt Q9GZV9 25-251 (human entry), limits assumed)
# T2 construct: also called cynoFGF23; cynoFGF23(R179Q)
# T2 chain: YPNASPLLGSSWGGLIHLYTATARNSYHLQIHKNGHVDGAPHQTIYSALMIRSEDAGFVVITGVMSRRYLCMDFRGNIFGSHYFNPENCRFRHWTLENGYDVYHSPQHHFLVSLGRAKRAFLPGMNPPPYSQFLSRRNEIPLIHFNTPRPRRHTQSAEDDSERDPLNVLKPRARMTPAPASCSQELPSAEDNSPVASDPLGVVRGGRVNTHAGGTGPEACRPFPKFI
# Assays:
# [1] = biological target: T1, recombinant human FGF23 (R179Q); assay: SPR, antibody captured on hIgG chip, human FGF23 analyte
# [2] = biological target: T1, recombinant human FGF23 (R179Q); assay: SPR, antibody captured on hIgG chip, rhFGF23(R179Q) analyte
# [3] = biological target: T1, recombinant human FGF23 (R179Q); assay: as above; remark: listed apart in the source
# [4] = biological target: T2, cynomolgus monkey (Macaca fascicularis) …; assay: SPR, antibody captured on hIgG chip, cynoFGF23(R179Q) analyte, single cycle kinetics
# Method: Binding kinetics of 13 antibody variants shown in Table 19 were characterized against cynomolgus monkey (Macaca fascicularis) FGF23 (R179Q) (i.e., “cynoFGF23”) (SEQ ID NO: 372). Antibody variants were expressed at small scale (3 ml) and screened by SPR analysis at a single concentration (100 nM). Experimental setup of SPR analysis for CRC: SPR device—8K+; chip preparation—CM5 hIgG chip: channels—1-8; immobilization concentration—1.5 ug/ml; immobilization method—capture; flow rate—5 μl/min; contact time—60 s; running buffer—1×HBS-EP+pH 7.4; temperature—20° C.: flow rate—50 μl/min; association time—120 s; dissociation time—1800 s; antigen—cynoFGF23(R179Q): top concentration—0.1 μM, 9-pt 3-fold Single Cycle Kinetics.
Binder,KD ratio (variant antibody KD/burosumab KD) [1],Kd [1],Kd [2],Ratio (variant antibody KD/burosumab KD) [2],SA (surface activity) [2],koff [2],kon [2],Kd [3],Ratio (variant antibody KD/burosumab KD) [3],SA (surface activity) [3],koff [3],kon [3],KD ratio (variant antibody KD/burosumab KD) [4],Kd [4]
"UGX157 (antibody, human IgG1, kappa, V domains shown, also called HC:I54Y; I54Y) VH: QVQLVQSGAEVKKPGASVKVSCKASGYTFTNHYMHWVRQAPGQGLEWMGIINPYSGSTSNAQKFQGRVTMTRDTSTSTVYMELSSLRSEDTAVYYCARDIVDAFDFWGQGTMVTVSS VL: AIQLTQSPSSLSASVGDRVTITCRASQGISSALVWYQQKPGKAPKLLIYDASSLESGVPSRFSGSGSGTDFTLTISSLQPEDFATYYCQQFNDYFTFGPGTKVDIKR",3,7.58 pM,7.58 pM,3,89.1%,0.000113 s⁻¹,1.49e+07 M⁻¹ s⁻¹,7.58 pM,3,89.1%,0.000113 s⁻¹,1.49e+07 M⁻¹ s⁻¹,4,5.73 pM
"UGX203 (antibody, human IgG1, kappa, V domains shown, also called HC:S59E, LC:S52D; S59E/S52D) VH: QVQLVQSGAEVKKPGASVKVSCKASGYTFTNHYMHWVRQAPGQGLEWMGIINPISGSTENAQKFQGRVTMTRDTSTSTVYMELSSLRSEDTAVYYCARDIVDAFDFWGQGTMVTVSS VL: AIQLTQSPSSLSASVGDRVTITCRASQGISSALVWYQQKPGKAPKLLIYDADSLESGVPSRFSGSGSGTDFTLTISSLQPEDFATYYCQQFNDYFTFGPGTKVDIKR",2,11.5 pM,11.3 pM and 12.4 pM and 11.5 pM,2,,0.000145 s⁻¹ and 0.000134 s⁻¹,1.3e+07 M⁻¹ s⁻¹ (2×) and 1.1e+07 M⁻¹ s⁻¹,11.5 pM,2,81.4%,0.000145 s⁻¹,1.26e+07 M⁻¹ s⁻¹,1,22.9 pM
"UGX205 (antibody, human IgG1, kappa, V domains shown, also called HC:S59E, LC:Y94D; S59E/Y94D) VH: QVQLVQSGAEVKKPGASVKVSCKASGYTFTNHYMHWVRQAPGQGLEWMGIINPISGSTENAQKFQGRVTMTRDTSTSTVYMELSSLRSEDTAVYYCARDIVDAFDFWGQGTMVTVSS VL: AIQLTQSPSSLSASVGDRVTITCRASQGISSALVWYQQKPGKAPKLLIYDASSLESGVPSRFSGSGSGTDFTLTISSLQPEDFATYYCQQFNDDFTFGPGTKVDIKR",5,4.07 pM,4.07 pM,5,93.9%,6.25e-05 s⁻¹,1.53e+07 M⁻¹ s⁻¹,4.07 pM,5,93.9%,6.25e-05 s⁻¹,1.53e+07 M⁻¹ s⁻¹,9,2.57 pM
"UGX202 (antibody, human IgG1, kappa, V domains shown, also called HC:S59E, LC:N92Y; S59E/N92Y) VH: QVQLVQSGAEVKKPGASVKVSCKASGYTFTNHYMHWVRQAPGQGLEWMGIINPISGSTENAQKFQGRVTMTRDTSTSTVYMELSSLRSEDTAVYYCARDIVDAFDFWGQGTMVTVSS VL: AIQLTQSPSSLSASVGDRVTITCRASQGISSALVWYQQKPGKAPKLLIYDASSLESGVPSRFSGSGSGTDFTLTISSLQPEDFATYYCQQFYDYFTFGPGTKVDIKR",3,7.59 pM,7.53 pM and 7.59 pM and 8.07 pM,3,,8.91e-05 s⁻¹ and 9.8e-05 s⁻¹ and 9.45e-05 s⁻¹,1.2e+07 M⁻¹ s⁻¹ (2×) and 1.3e+07 M⁻¹ s⁻¹,7.59 pM,3,91.6%,9.8e-05 s⁻¹,1.29e+07 M⁻¹ s⁻¹,3,6.93 pM
"UGX206 (antibody, human IgG1, kappa, V domains shown, also called HC:S59E, LC:Y94E; S59E/Y94E) VH: QVQLVQSGAEVKKPGASVKVSCKASGYTFTNHYMHWVRQAPGQGLEWMGIINPISGSTENAQKFQGRVTMTRDTSTSTVYMELSSLRSEDTAVYYCARDIVDAFDFWGQGTMVTVSS VL: AIQLTQSPSSLSASVGDRVTITCRASQGISSALVWYQQKPGKAPKLLIYDASSLESGVPSRFSGSGSGTDFTLTISSLQPEDFATYYCQQFNDEFTFGPGTKVDIKR",3,7.87 pM,6.62 pM and 7.87 pM and 10.9 pM,,,5.72e-05 s⁻¹ and 4.92e-05 s⁻¹ and 8.37e-05 s⁻¹,8.64e+06 M⁻¹ s⁻¹ and 6.25e+06 M⁻¹ s⁻¹ and 7.69e+06 M⁻¹ s⁻¹,7.87 pM,3,108%,4.92e-05 s⁻¹,6.25e+06 M⁻¹ s⁻¹,3,7.16 pM
"UGX182 (antibody, human IgG1, kappa, V domains shown, also called HC:S59D, HC:V101I; S59D/V101I) VH: QVQLVQSGAEVKKPGASVKVSCKASGYTFTNHYMHWVRQAPGQGLEWMGIINPISGSTDNAQKFQGRVTMTRDTSTSTVYMELSSLRSEDTAVYYCARDIIDAFDFWGQGTMVTVSS VL: AIQLTQSPSSLSASVGDRVTITCRASQGISSALVWYQQKPGKAPKLLIYDASSLESGVPSRFSGSGSGTDFTLTISSLQPEDFATYYCQQFNDYFTFGPGTKVDIKR",2,9.47 pM,9.47 pM,2,100%,0.000141 s⁻¹,1.49e+07 M⁻¹ s⁻¹,9.47 pM,2,100%,0.000141 s⁻¹,1.49e+07 M⁻¹ s⁻¹,1,16.3 pM
"UGX175 (antibody, human IgG1, kappa, V domains shown, also called HC:A103S; A103S) VH: QVQLVQSGAEVKKPGASVKVSCKASGYTFTNHYMHWVRQAPGQGLEWMGIINPISGSTSNAQKFQGRVTMTRDTSTSTVYMELSSLRSEDTAVYYCARDIVDSFDFWGQGTMVTVSS VL: AIQLTQSPSSLSASVGDRVTITCRASQGISSALVWYQQKPGKAPKLLIYDASSLESGVPSRFSGSGSGTDFTLTISSLQPEDFATYYCQQFNDYFTFGPGTKVDIKR",3,7.72 pM,7.72 pM,3,86.8%,9.61e-05 s⁻¹,1.24e+07 M⁻¹ s⁻¹,7.72 pM,3,86.8%,9.61e-05 s⁻¹,1.24e+07 M⁻¹ s⁻¹,4,6.17 pM
"UGX201 (antibody, human IgG1, kappa, V domains shown, also called HC:S59E, LC:N92F; S59E/N92F) VH: QVQLVQSGAEVKKPGASVKVSCKASGYTFTNHYMHWVRQAPGQGLEWMGIINPISGSTENAQKFQGRVTMTRDTSTSTVYMELSSLRSEDTAVYYCARDIVDAFDFWGQGTMVTVSS VL: AIQLTQSPSSLSASVGDRVTITCRASQGISSALVWYQQKPGKAPKLLIYDASSLESGVPSRFSGSGSGTDFTLTISSLQPEDFATYYCQQFFDYFTFGPGTKVDIKR",4,5.17 pM,4.52 pM and 6.32 pM and 5.17 pM,,,3.65e-05 s⁻¹ and 6.31e-05 s⁻¹ and 5.81e-05 s⁻¹,8.08e+06 M⁻¹ s⁻¹ and 9.99e+06 M⁻¹ s⁻¹ and 1.12e+07 M⁻¹ s⁻¹,5.17 pM,4,83.4%,5.81e-05 s⁻¹,1.12e+07 M⁻¹ s⁻¹,2,10.1 pM
"UGX204 (antibody, human IgG1, kappa, V domains shown, also called HC:S59E, LC:S52E; S59E/S52E) VH: QVQLVQSGAEVKKPGASVKVSCKASGYTFTNHYMHWVRQAPGQGLEWMGIINPISGSTENAQKFQGRVTMTRDTSTSTVYMELSSLRSEDTAVYYCARDIVDAFDFWGQGTMVTVSS VL: AIQLTQSPSSLSASVGDRVTITCRASQGISSALVWYQQKPGKAPKLLIYDAESLESGVPSRFSGSGSGTDFTLTISSLQPEDFATYYCQQFNDYFTFGPGTKVDIKR",2,13.3 pM,13.3 pM and 14 pM and 18.3 pM,,,0.000186 s⁻¹ and 0.000121 s⁻¹ and 0.000138 s⁻¹,1.4e+07 M⁻¹ s⁻¹ and 8.64e+06 M⁻¹ s⁻¹ and 7.57e+06 M⁻¹ s⁻¹,13.3 pM,2,90.4%,0.000186 s⁻¹,1.4e+07 M⁻¹ s⁻¹,1,16 pM
